Data taken from patent US20220249679A1 (Mitsubishi Tanabe Pharma Corporation, priority 2018, published 2022).

T1: Human CD138 His (Homo sapiens, UniProt P18827)
T1 construct: His
T1 sequence (P18827 23-310): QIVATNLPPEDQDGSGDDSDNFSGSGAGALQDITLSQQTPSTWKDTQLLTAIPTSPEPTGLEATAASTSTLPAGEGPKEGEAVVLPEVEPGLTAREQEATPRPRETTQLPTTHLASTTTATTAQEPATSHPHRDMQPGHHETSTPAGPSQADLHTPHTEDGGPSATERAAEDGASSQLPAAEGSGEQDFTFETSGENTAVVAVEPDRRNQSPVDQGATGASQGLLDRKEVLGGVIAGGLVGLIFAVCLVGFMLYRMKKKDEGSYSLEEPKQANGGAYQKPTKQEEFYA


Key:
[1] = Size exclusion chromatography (SEC), percent monomer; type: physicochemical; conditions: Table 19, after protein A purification
Procedure: The antibodies were purified utilizing pH dependent, protein A purification (HiTrap MabSelect SuRe 5 mL). After purification, the antibodies were buffer exchanged into 1× DPBS using zeba spin columns. The recovery and relative stability as determined by size exclusion chromatography (SEC) analysis varied between the humanized antibodies (SEC profiles not shown). The nomenclature sometimes takes the form of hF6 xky-rep where h stands for humanized, F6 stands for F12P16F6-derived, x stands for the first letter of the first procedure used to generate the humanized heavy chain sequence (e.g., x can be a=abb, s=sdr, f=fra, or c=cdr), k stands for kappa light chain, and y stands for the first letter of the first procedure used to generate the humanized light chain sequence (a=abb, s=sdr, f=fra, c=cdr).

Human CD138 His = molecular target: T1, Human CD138 His; assay: SPR kinetic binding, human CD138; conditions: bivalent analyte fit
Procedure: Murine IgGs were purified from the hybridoma supernatants and the IgGs were subject to SPR (surface plasmon resonance) for kinetic binding measurements. Human or mouse CD138 His was immobilized on a GLM chip at […] on a BioRad Proteon. […] KDs were measured using bivalent analyte fit.

Molecule | SEC % Monomer [1] [%] | further results
F6 ckf-rep: humanized anti-CD138 antibody; VH SEQ ID NO:90, VL SEQ ID NO:43 (antibody, V domains shown, Humanized Heavy chain variable region; Humanized Light chain variable region) VH: QVQLVQSGAEVVKPGASVKLSCKASGYTFTSYYLYWVKKAPGQGLDWIGEIYPRSGGTNINEKFLSRVTLTADTSTSTAYLELSSLTSEDTAVYYCTRSLLYWGQGTTLTVSS VL: DVVMTQSPLSLSVTLGQPASISCKSSQSLLASDGKTYLNWLQQRPGQSPRRLIYLVSKLDSGVPNRFSGSGSGTDFTLQISRVEAEDVGLYYCWQGAHFPFTFGSGTKLEIKR | 95.3 | –
F6 cka-rep: humanized anti-CD138 antibody; VH SEQ ID NO:90, VL SEQ ID NO:42 (antibody, V domains shown, Humanized Heavy chain variable region; Humanized Light chain variable region) VH: QVQLVQSGAEVVKPGASVKLSCKASGYTFTSYYLYWVKKAPGQGLDWIGEIYPRSGGTNINEKFLSRVTLTADTSTSTAYLELSSLTSEDTAVYYCTRSLLYWGQGTTLTVSS VL: DVVMTQTPLSLSVTPGQPASISCKSSQSLLASDGKTYLNWLLQRPGQSPKRLIYLVSKLDSGVPNRFSGSGSGTDFTLQISRVEAEDVGLYYCMQGAHFPFTFGGGTKVEIKR | 88.8 | –
F6 akf-rep: humanized anti-CD138 antibody; VH SEQ ID NO:89, VL SEQ ID NO:43 (antibody, V domains shown, Humanized Heavy chain variable region; Humanized Light chain variable region) VH: QVQLVQSGAEVVKPGASVKLSCKASGYTFTSYYLYWVKKAPGQGLDWIGEIYPRSGGTNYAEKFQGRVTLTADTSTSTAYLELSSLTSEDTAVYYCTRSLLYWGQGTTLTVSS VL: DVVMTQSPLSLSVTLGQPASISCKSSQSLLASDGKTYLNWLQQRPGQSPRRLIYLVSKLDSGVPNRFSGSGSGTDFTLQISRVEAEDVGLYYCWQGAHFPFTFGSGTKLEIKR | 95.4 | –
F6 aka-rep: humanized anti-CD138 antibody; VH SEQ ID NO:89, VL SEQ ID NO:42 (antibody, V domains shown, Humanized Heavy chain variable region; Humanized Light chain variable region) VH: QVQLVQSGAEVVKPGASVKLSCKASGYTFTSYYLYWVKKAPGQGLDWIGEIYPRSGGTNYAEKFQGRVTLTADTSTSTAYLELSSLTSEDTAVYYCTRSLLYWGQGTTLTVSS VL: DVVMTQTPLSLSVTPGQPASISCKSSQSLLASDGKTYLNWLLQRPGQSPKRLIYLVSKLDSGVPNRFSGSGSGTDFTLQISRVEAEDVGLYYCMQGAHFPFTFGGGTKVEIKR | 75.2 | –
F6 f1ks-rep: humanized anti-CD138 antibody; VH SEQ ID NO:91, VL SEQ ID NO:41 (antibody, V domains shown, Humanized Heavy chain variable region; Humanized Light chain variable region) VH: QVQLQQSGAEVVKPGASVKLSCKASGYTFTSYYLYWVKKAPGQGLDWIGEIYPRSGGTNINEKFLSRVTLTADTSTSTAYMDLSSLTSEDTAVYYCTRSLLYWGQGTTLTVSS VL: DVVMTQTPLSLSVTPGQPASISCKSSQSLLASDGKTYLNWLLQRPGQSPKRLIYLVSKLDSGVPNRFSGSGSGTDFTLQISRVEAEDVGLYYCWQGAHFPFTFGSGTKLEIKR | 95.6 | –
F6 f1kf-rep: humanized anti-CD138 antibody; VH SEQ ID NO:91, VL SEQ ID NO:43 (antibody, V domains shown, Humanized Heavy chain variable region; Humanized Light chain variable region) VH: QVQLQQSGAEVVKPGASVKLSCKASGYTFTSYYLYWVKKAPGQGLDWIGEIYPRSGGTNINEKFLSRVTLTADTSTSTAYMDLSSLTSEDTAVYYCTRSLLYWGQGTTLTVSS VL: DVVMTQSPLSLSVTLGQPASISCKSSQSLLASDGKTYLNWLQQRPGQSPRRLIYLVSKLDSGVPNRFSGSGSGTDFTLQISRVEAEDVGLYYCWQGAHFPFTFGSGTKLEIKR | 94.3 | –
F6 f1ka-rep: humanized anti-CD138 antibody; VH SEQ ID NO:91, VL SEQ ID NO:42 (antibody, V domains shown, Humanized Heavy chain variable region; Humanized Light chain variable region) VH: QVQLQQSGAEVVKPGASVKLSCKASGYTFTSYYLYWVKKAPGQGLDWIGEIYPRSGGTNINEKFLSRVTLTADTSTSTAYMDLSSLTSEDTAVYYCTRSLLYWGQGTTLTVSS VL: DVVMTQTPLSLSVTPGQPASISCKSSQSLLASDGKTYLNWLLQRPGQSPKRLIYLVSKLDSGVPNRFSGSGSGTDFTLQISRVEAEDVGLYYCMQGAHFPFTFGGGTKVEIKR | 92.9 | –
F6 aks-rep: humanized anti-CD138 antibody; VH SEQ ID NO:89, VL SEQ ID NO:41 (antibody, V domains shown, Humanized Heavy chain variable region; Humanized Light chain variable region) VH: QVQLVQSGAEVVKPGASVKLSCKASGYTFTSYYLYWVKKAPGQGLDWIGEIYPRSGGTNYAEKFQGRVTLTADTSTSTAYLELSSLTSEDTAVYYCTRSLLYWGQGTTLTVSS VL: DVVMTQTPLSLSVTPGQPASISCKSSQSLLASDGKTYLNWLLQRPGQSPKRLIYLVSKLDSGVPNRFSGSGSGTDFTLQISRVEAEDVGLYYCWQGAHFPFTFGSGTKLEIKR | 95.2 | –
F6 f2ka-rep: humanized anti-CD138 antibody; VH SEQ ID NO:92, VL SEQ ID NO:42; two lots (antibody, V domains shown, Humanized Heavy chain variable region; Humanized Light chain variable region, humanized anti-CD138 antibody; two lots) VH: QVQLQQSGAEVVKPGASVKLSCKASGYTFTSYYLYWVKKAPGQGLDWIGEIYPRSGGTNINEKFLSRVTITADESTSTVYMQLSSLTSEDSAVYYCTRSLLYWGQGTTLTVSS VL: DVVMTQTPLSLSVTPGQPASISCKSSQSLLASDGKTYLNWLLQRPGQSPKRLIYLVSKLDSGVPNRFSGSGSGTDFTLQISRVEAEDVGLYYCMQGAHFPFTFGGGTKVEIKR | – | SEC % Monomer ([1]; listed as F6 f2ka-rep (Lot 1)): 79.1%; SEC % Monomer ([1]; listed as F6 f2ka-rep (Lot 2)): 95%
F6 f2kf-rep: humanized anti-CD138 antibody; VH SEQ ID NO:92, VL SEQ ID NO:43 (antibody, V domains shown, Humanized Heavy chain variable region; Humanized Light chain variable region) VH: QVQLQQSGAEVVKPGASVKLSCKASGYTFTSYYLYWVKKAPGQGLDWIGEIYPRSGGTNINEKFLSRVTITADESTSTVYMQLSSLTSEDSAVYYCTRSLLYWGQGTTLTVSS VL: DVVMTQSPLSLSVTLGQPASISCKSSQSLLASDGKTYLNWLQQRPGQSPRRLIYLVSKLDSGVPNRFSGSGSGTDFTLQISRVEAEDVGLYYCWQGAHFPFTFGSGTKLEIKR | 95.1 | –
F6 f2ks-rep: humanized anti-CD138 antibody; VH SEQ ID NO:92, VL SEQ ID NO:41 (antibody, V domains shown, Humanized Heavy chain variable region; Humanized Light chain variable region) VH: QVQLQQSGAEVVKPGASVKLSCKASGYTFTSYYLYWVKKAPGQGLDWIGEIYPRSGGTNINEKFLSRVTITADESTSTVYMQLSSLTSEDSAVYYCTRSLLYWGQGTTLTVSS VL: DVVMTQTPLSLSVTPGQPASISCKSSQSLLASDGKTYLNWLLQRPGQSPKRLIYLVSKLDSGVPNRFSGSGSGTDFTLQISRVEAEDVGLYYCWQGAHFPFTFGSGTKLEIKR | 77.6 | –
F12P7G11: murine anti-CD138 hybridoma antibody; VH SEQ ID NO:85, VL SEQ ID NO:37 (antibody, listed as Mus musculus, V domains shown) VH: QVQLQQSGAELARPGASVKLSCKASGYTFSSHWMQWVKQRPGQGLEWIGAIYPGDGDTRFTQKFKGKATLTADKSSNTAYMQLSSLASEDSAVYYCARGIYYDRSRAMDYWGQGTSVTVSS VL: QIVLSQSPAILSASPGEKVTMTCRASSSVNYMHWYQQKPGSSPKHWIYATSYLASGVPARFSGSGSGTSYSLTISRVEAEDAATYYCQQWSSDPLTFGAGTKLELKR | – | hCD138 ka (Human CD138 His): 3.81e+06 M⁻¹ s⁻¹; hCD138 kd (Human CD138 His): 0.033 s⁻¹
F13P14D3: murine anti-CD138 hybridoma antibody; VH SEQ ID NO:86, VL SEQ ID NO:38 (antibody, listed as Mus musculus, V domains shown) VH: EVQLVESGGGLVQPKGSLKLSCATSGFTFNTYAMNWVRQAPGKGLEWVARIRSKSNNYATYYVDSVKDRFTISRDDSQSTVHLQMNNLKTEDTAIYYCVTDYGHVYFDVWGAGTTVTVSS VL: NIVMTQSPKSMSMSVGQRVTLSCKASENVGSYVSWYQQKPEQSPKLLIYGASNRNTGVPDRFTGSGSATDFTLTISSVQAEDLADYHCGQSSRYPLTFGGGTKLELKR | – | hCD138 ka (Human CD138 His): 107000 M⁻¹ s⁻¹; hCD138 kd (Human CD138 His): 0.00104 s⁻¹
